From publication PMC5577252 come the findings set out here.

In the experiment the target is PSII-LHCII supercomplexes of sucrose gradient band α3 (α3G with glutaraldehyde) (pea (Pisum sativum L., endogenous in leaves)) (UniProt P06585).

As for “PSII-LHCII supercomplexes of sucrose gradient band α3 (α3G with glutaraldehyde) (from UniProt P06585 1-344; P06006 1-353; P06004 15-473; P14226 82-329; P27520 38-265)”, the fast chlorophyll a fluorescence induction (OJIP), O–J curvature parameter C; control (sucrose gradient buffer with cations, paired) came out at 0.35; the fast chlorophyll a fluorescence induction (OJIP), O–J curvature parameter C; no salts (salt-free buffer, unpaired) was found to be 0.14; the fast chlorophyll a fluorescence induction (OJIP), connectivity among PSII units parameter p; control (sucrose gradient buffer with cations, paired) was 0.3; the fast chlorophyll a fluorescence induction (OJIP), connectivity among PSII units parameter p; no salts (salt-free buffer, unpaired) came out at 0.13. Besides, the fast chlorophyll a fluorescence induction (OJIP), overall grouping probability p2G; control (sucrose gradient buffer with cations, paired) was 0.21; the fast chlorophyll a fluorescence induction (OJIP), overall grouping probability p2G; no salts (salt-free buffer, unpaired) came to 0.15; the fast chlorophyll a fluorescence induction (OJIP), probability of connectivity between PSII units ω; control (sucrose gradient buffer with cations, paired) amounted to 0.2; the fast chlorophyll a fluorescence induction (OJIP), probability of connectivity between PSII units ω; no salts (salt-free buffer, unpaired) came to 0.06.
